Results on two molecules are retold here after US20140087995A1 (published 2014).

The target of the experiment is T1, human calcitonin receptor (human, UniProt P30988 25-474).
T1 construct: whole, on cells; also called hCTR; hCT
T1 sequence (looked up): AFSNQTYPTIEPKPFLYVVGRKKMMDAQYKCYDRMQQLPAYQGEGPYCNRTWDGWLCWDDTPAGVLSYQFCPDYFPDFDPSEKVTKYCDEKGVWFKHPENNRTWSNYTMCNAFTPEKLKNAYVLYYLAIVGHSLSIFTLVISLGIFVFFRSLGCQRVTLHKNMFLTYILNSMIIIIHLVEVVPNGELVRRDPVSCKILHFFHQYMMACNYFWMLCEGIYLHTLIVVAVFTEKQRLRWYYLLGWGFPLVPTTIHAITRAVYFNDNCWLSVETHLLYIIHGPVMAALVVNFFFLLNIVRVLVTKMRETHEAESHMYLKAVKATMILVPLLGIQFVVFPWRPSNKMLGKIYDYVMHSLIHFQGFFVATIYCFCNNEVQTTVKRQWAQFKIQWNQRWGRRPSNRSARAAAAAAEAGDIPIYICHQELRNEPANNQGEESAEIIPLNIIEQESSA
Put plainly: SPA competition with 125I-calcitonin, membranes of BHK hCTR cells (Assay VII). An outline of the steps:
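BHK hCTR membranes 35 ng/μL + SPA beads 0.05 mg/well; buffer 50 mM Hepes pH 7.4, 1 mM CaCl2, 5 mM MgCl₂, 0.1% OA, 0.02% Tween20. 120 min, 25° C., shaking. Scintillation count; IC50 by one-site binding competition.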

Numbered stars: 1 amine (or outer) side, 2 acyl side, 3 side chain; on linkers, the order of the positions; unused ones are H or OH. Bridge positions count the residues as written; N and C are the ends. Side chains are listed from the residue outwards. Ends that are not written are not given here. * marks the point of attachment. C20 diacid = O=C(O)CCCCCCCCCCCCCCCCCCC(=O)*; γGlu = O=C(O)[C@H](CCC(=O)[*:2])N[*:1]

B1: N^ε1-[(4S)-4-carboxy-4-(19-carboxynonadecanoylamino)butanoyl]-[His14,Arg17,Pro21,Pro27,Pro31]-h-amylin (peptide)
peptide: K([γGlu-C20 diacid])CNTATCATQRLAHFLRHSSPNFGAIPSSTPVGSNTY-NH2
modifications: disulfide 2-7; N-terminus assumed
SMILES: CC[C@H](C)[C@H](NC(=O)[C@H](C)NC(=O)CNC(=O)[C@H](Cc1ccccc1)NC(=O)[C@H](CC(N)=O)NC(=O)[C@@H]1CCCN1C(=O)[C@H](CO)NC(=O)[C@H](CO)NC(=O)[C@H](Cc1c[nH]cn1)NC(=O)[C@H](CCCNC(=N)N)NC(=O)[C@H](CC(C)C)NC(=O)[C@H](Cc1ccccc1)NC(=O)[C@H](Cc1c[nH]cn1)NC(=O)[C@H](C)NC(=O)[C@H](CC(C)C)NC(=O)[C@H](CCCNC(=N)N)NC(=O)[C@H](CCC(N)=O)NC(=O)[C@@H](NC(=O)[C@H](C)NC(=O)[C@@H]1CSSC[C@H](NC(=O)[C@@H](N)CCCCNC(=O)CC[C@H](NC(=O)CCCCCCCCCCCCCCCCCCC(=O)O)C(=O)O)C(=O)N[C@@H](CC(N)=O)C(=O)N[C@@H]([C@@H](C)O)C(=O)N[C@@H](C)C(=O)N[C@@H]([C@@H](C)O)C(=O)N1)[C@@H](C)O)C(=O)N1CCC[C@H]1C(=O)N[C@@H](CO)C(=O)N[C@@H](CO)C(=O)N[C@H](C(=O)N1CCC[C@H]1C(=O)N[C@H](C(=O)NCC(=O)N[C@@H](CO)C(=O)N[C@@H](CC(N)=O)C(=O)N[C@H](C(=O)N[C@@H](Cc1ccc(O)cc1)C(N)=O)[C@@H](C)O)C(C)C)[C@@H](C)O
notes: also called compound 62
One may read the IC50 as the concentration at which inhibition is half-maximal. As for B1, the IC50 came out at 6.17 nM.

B2: N^ε1-[(4S)-4-carboxy-4-(19-carboxynonadecanoylamino)butanoyl]-[His14,Arg17,Pro21,Pro27]-h-amylin (peptide)
peptide: K([γGlu-C20 diacid])CNTATCATQRLAHFLRHSSPNFGAIPSSTNVGSNTY-NH2
modifications: disulfide 2-7; N-terminus assumed
SMILES: CC[C@H](C)[C@H](NC(=O)[C@H](C)NC(=O)CNC(=O)[C@H](Cc1ccccc1)NC(=O)[C@H](CC(N)=O)NC(=O)[C@@H]1CCCN1C(=O)[C@H](CO)NC(=O)[C@H](CO)NC(=O)[C@H](Cc1c[nH]cn1)NC(=O)[C@H](CCCNC(=N)N)NC(=O)[C@H](CC(C)C)NC(=O)[C@H](Cc1ccccc1)NC(=O)[C@H](Cc1c[nH]cn1)NC(=O)[C@H](C)NC(=O)[C@H](CC(C)C)NC(=O)[C@H](CCCNC(=N)N)NC(=O)[C@H](CCC(N)=O)NC(=O)[C@@H](NC(=O)[C@H](C)NC(=O)[C@@H]1CSSC[C@H](NC(=O)[C@@H](N)CCCCNC(=O)CC[C@H](NC(=O)CCCCCCCCCCCCCCCCCCC(=O)O)C(=O)O)C(=O)N[C@@H](CC(N)=O)C(=O)N[C@@H]([C@@H](C)O)C(=O)N[C@@H](C)C(=O)N[C@@H]([C@@H](C)O)C(=O)N1)[C@@H](C)O)C(=O)N1CCC[C@H]1C(=O)N[C@@H](CO)C(=O)N[C@@H](CO)C(=O)N[C@H](C(=O)N[C@@H](CC(N)=O)C(=O)N[C@H](C(=O)NCC(=O)N[C@@H](CO)C(=O)N[C@@H](CC(N)=O)C(=O)N[C@H](C(=O)N[C@@H](Cc1ccc(O)cc1)C(N)=O)[C@@H](C)O)C(C)C)[C@@H](C)O
notes: also called compound 70
For B2, the IC50 was 10.3 nM.
